Results: paper PMC2945414

What was measured:
[1] = molecular target: PKA (RIIα), regulatory subunit of type II cAMP-dependent protein kinase, residues 2-44; assay: ITC
FLAG-tagged PKA (RIIα) = FLAG-tagged PKA (RIIα) (UniProt P13861); assay: co-IP
[2] = molecular target: PKA (RIIα) (Homo sapiens) (UniProt P13861); conditions: cited from earlier work
PKA (RIα) (Homo sapiens) = PKA (RIα) (Homo sapiens) (UniProt P10644); conditions: cited from earlier work
Sequence of PKA (RIα) (Homo sapiens) (P10644 whole entry): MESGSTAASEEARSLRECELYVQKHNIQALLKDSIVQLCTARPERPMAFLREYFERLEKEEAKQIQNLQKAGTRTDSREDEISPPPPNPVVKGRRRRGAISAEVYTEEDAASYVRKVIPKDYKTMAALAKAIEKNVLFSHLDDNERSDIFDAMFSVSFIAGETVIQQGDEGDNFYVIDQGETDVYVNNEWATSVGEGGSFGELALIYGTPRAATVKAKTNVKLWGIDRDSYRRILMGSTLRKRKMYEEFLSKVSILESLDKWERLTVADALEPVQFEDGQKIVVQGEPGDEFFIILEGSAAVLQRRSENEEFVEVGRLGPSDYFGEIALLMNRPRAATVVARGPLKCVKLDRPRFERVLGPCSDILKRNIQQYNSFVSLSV

Sequence of D-AKAP2 (O43572 29-662): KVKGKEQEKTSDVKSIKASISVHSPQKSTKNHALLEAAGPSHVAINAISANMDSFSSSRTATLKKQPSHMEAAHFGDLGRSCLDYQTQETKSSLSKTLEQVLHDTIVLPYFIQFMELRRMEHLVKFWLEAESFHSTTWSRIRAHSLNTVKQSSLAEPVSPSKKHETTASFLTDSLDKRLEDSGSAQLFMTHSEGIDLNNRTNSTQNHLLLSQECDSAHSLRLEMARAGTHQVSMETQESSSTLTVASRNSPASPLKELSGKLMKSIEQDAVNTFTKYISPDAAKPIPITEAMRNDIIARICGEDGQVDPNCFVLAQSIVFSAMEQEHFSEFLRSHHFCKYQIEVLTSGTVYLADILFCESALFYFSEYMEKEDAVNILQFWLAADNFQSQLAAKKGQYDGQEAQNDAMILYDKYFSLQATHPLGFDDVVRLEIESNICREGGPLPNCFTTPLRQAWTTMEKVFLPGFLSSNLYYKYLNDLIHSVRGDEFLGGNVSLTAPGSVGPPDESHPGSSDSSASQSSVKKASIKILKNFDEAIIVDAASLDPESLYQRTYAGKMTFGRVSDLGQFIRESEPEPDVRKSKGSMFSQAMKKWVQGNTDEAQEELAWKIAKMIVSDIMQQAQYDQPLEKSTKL

| Substance | Kd [1] [nM] | other results |
| --- | --- | --- |
| Trx-NHR3(585-615) V604A (domain or fragment) | 383 |  |
| AML1-ETO V601A (natural protein) |  | fold decrease of the interaction relative to AML1-ETO (FLAG-tagged PKA (RIIα)): 2 fold |
| Trx-NHR3(585-615) (domain or fragment) | 256 |  |
| D-AKAP2 (from UniProt O43572) |  | Kd [2]: 2 nM; Kd (PKA (RIα) (Homo sapiens)): 48 nM |
| AML1-ETO Nervy Homology Region 3 (NHR3) domain, residues A585-N654 (domain or fragment) | 67 | stoichiometry N (NHR3 : PKA (RIIα) chains (1:2)) [1]: 0.5 |
| Trx-NHR3(585-615) V601A (domain or fragment) | 14000 |  |

The next lines start with results.

| Kd [1] [nM] | Substance | other results |
| --- | --- | --- |
| 909 | Trx-NHR3(585-615) W594A (domain or fragment) |  |
| 128 | Trx-NHR3(585-654) (domain or fragment) |  |
